Numbering of substitutions follows the chain as printed.
What was measured:
Test in all cases: ELISA, antibody coated, OX40-ECD.His mutant supernatant; relative to silent alanine substitutions;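 note: captured OX40 mutant protein detected with HRP-labelled anti-His antibody, absorbance read-out, scaled to the mean signal of control mutants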
human OX40-ECD.His N39A = target: T1, human OX40-ECD.His N39A (human, UniProt P43489 29-214)
T1 construct: extracellular domain; not shown: C-terminal His-tag
T1 sequence (looked up): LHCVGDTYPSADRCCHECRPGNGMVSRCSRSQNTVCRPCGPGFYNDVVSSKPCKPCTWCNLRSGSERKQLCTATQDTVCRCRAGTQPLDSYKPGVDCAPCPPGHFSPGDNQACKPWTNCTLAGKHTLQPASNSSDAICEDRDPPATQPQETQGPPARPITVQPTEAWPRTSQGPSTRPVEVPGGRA

human OX40-ECD.His R65A = target: T2, human OX40-ECD.His R65A (human, UniProt P43489 29-214)
T2 construct: extracellular domain; not shown: C-terminal His-tag
T2 sequence (looked up): T1 sequence (looked up) with A11N, R37A

human OX40-ECD.His S38A = target: T3, human OX40-ECD.His S38A (human, UniProt P43489 29-214)
T3 construct: extracellular domain; not shown: C-terminal His-tag
T3 sequence (looked up): T1 sequence (looked up) with S10A, A11N

human OX40-ECD.His Y36A = target: T4, human OX40-ECD.His Y36A (human, UniProt P43489 29-214)
T4 construct: extracellular domain; not shown: C-terminal His-tag
T4 sequence (looked up): T1 sequence (looked up) with Y8A, A11N

human OX40-ECD.His T145A = target: T5, human OX40-ECD.His T145A (human, UniProt P43489 29-214)
T5 construct: extracellular domain; not shown: C-terminal His-tag
T5 sequence (looked up): T1 sequence (looked up) with A11N, T117A

human OX40-ECD.His A101G = target: T6, human OX40-ECD.His A101G (human, UniProt P43489 29-214)
T6 construct: extracellular domain; not shown: C-terminal His-tag
T6 sequence (looked up): T1 sequence (looked up) with A11N, A73G

human OX40-ECD.His P135A = target: T7, human OX40-ECD.His P135A (human, UniProt P43489 29-214)
T7 construct: extracellular domain; not shown: C-terminal His-tag
T7 sequence (looked up): T1 sequence (looked up) with A11N, P107A

human OX40-ECD.His P66A = target: T8, human OX40-ECD.His P66A (human, UniProt P43489 29-214)
T8 construct: extracellular domain; not shown: C-terminal His-tag
T8 sequence (looked up): T1 sequence (looked up) with A11N, P38A

human OX40-ECD.His P143A = target: T9, human OX40-ECD.His P143A (human, UniProt P43489 29-214)
T9 construct: extracellular domain; not shown: C-terminal His-tag
T9 sequence (looked up): T1 sequence (looked up) with A11N, P115A

human OX40-ECD.His T102A = target: T10, human OX40-ECD.His T102A (human, UniProt P43489 29-214)
T10 construct: extracellular domain; not shown: C-terminal His-tag
T10 sequence (looked up): T1 sequence (looked up) with A11N, T74A

B1: 1.134.9-u1-IgG1L (antibody, V domains shown)
VH: QVQLQESGPGLVKPSGTLSLTCAVSGGSISSYNWWSWVRQPPGKGLEWIGEIYHGGNTNYNPSLKSRVTMSVDNSKNQFSLKLSSVTAADTAVYYCARAPGDWGGSPYFDFWGQGTLVTVSS
VL: SSELTQDPAVSVALGQTVRITCQGDNLRTYYASWYQQKPGQAPILLIYGRNKRPSGIPDRFSGSSSGNTASLTITGAQAEDEAAYYCNSRDSSGNPVVFGGGTKLTVL
notes: fully human IgG1, lambda
Human OX40-ECD.His N39A
  Fold Change: 0.988
Human OX40-ECD.His R65A
  Fold Change: 0.996
Human OX40-ECD.His S38A
  Fold Change: 0.997
Human OX40-ECD.His Y36A
  Fold Change: 1
Human OX40-ECD.His T145A
  Fold Change: 0.675
Human OX40-ECD.His A101G
  Fold Change: 0.881
Human OX40-ECD.His P135A
  Fold Change: 0.899
Human OX40-ECD.His P66A
  Fold Change: 0.913
Human OX40-ECD.His P143A
  Fold Change: 0.92
Human OX40-ECD.His T102A
  Fold Change: 0.94

Reference: patent US20210171647A1 (WUXI BIOLOGICS SHANGHAI, published 2021)
